{
  "source": "patent US20110286916A1",
  "about": "(published 2011)",
  "binders": {"B1": {"name": "N1wc39 (scFv, V domains shown)", "VH": "EVQLVQSGAEVKKPGASVKLSCKTSGHTFTNYAFHWLRQAPGQRPEWLGWINADNGNTKYSQSFQDRVTITRDISANTAYMEMSRLKSEDTAYYYCARDPWSGVLDHWGKGTLVTVSS", "VL": "DIQLTQSPSSVSASIGDTVTITCRASQNINKWLAWYQQKPGKAPYLLISTASNLQSGVPSRFSGTGSGTAFTLTISRVQPEDFANYYCQQAFSFPITFGQGTRLEIK", "notes": "phage scFv"}, "B2": {"name": "N1wc621 (scFv, V domains shown)", "VH": "EVQLVQSGAEVKKPGASVKVSCKASGYTFTGYYIHWVRQAPGQGLEWMGWISPNSGVTNYAQRFQGRVTMSRDTSITTAYMELNRLGSDDTAVYYCAREGREDGVLFDYWGRGTLVTVSS", "VL": "QAVLTQPSSVSGAPGQTVTISCAGSSSNLGAGYDAHWYQHLPGAVPRLLIYNNSKRPSGVPDRFSASKSGSSASLAITGLQPEDEADYYCQTYDTRLSGSMLFGGGTKVTVL", "notes": "phage scFv"}, "B3": {"name": "N1wc45 (scFv, V domains shown)", "VH": "EVQLVQSGAEVKKPGASVKVSCKASGYSFRSYGIVWVRQAPGQGLEWMGWISAYNGNTNYAQKLQGRVTMTTDTSTSTAYMELRSLRSDDTAVYYCVRGDRHYDILTGYSPVWFDPWGKGTTVTVSS", "VL": "SSELTQDPAVSVALGQTVRITCQGDSLRSYYASWYQQKPGQAPVLVIYGKNNRPSGIPDRFSGSSSGNTASLTITGAQAEDEADYYCNSRDSSGNHVVFGGGTKLTVL", "notes": "phage scFv"}, "B4": {"name": "FL-SKNAS-C2-384 (antibody, human IgG1, lambda, V domains shown)", "VH": "EVQLVQSGAEVKKPGSSVKVSCKASGGTLSSSAISWVRQAPGEGLEWMGGIIPMFDSTNYAQKFQGRVTITADESTSTAFMELSSLRSDDTAVYYCGRDPYYDRLSGGGYMDVWGQGTLVTVSS", "VL": "SYVLTQPPSVSGALRQTATVTCTGNSSNVGNQGAAWLRQHQGRPPKLLSYRNNDRPSGVSQRFSASTSGNTASLTITGLQSEDEADYFCSAWDSSRSGWVFGGGTKLTVLG"}, "B5": {"name": "HN1S3-133 (antibody, human IgG1, lambda, V domains shown)", "VH": "QVQLVQSGPEVKKPGTSVKVSCKASGFTFTSSAVQWVRQARGQRLEWIGWIVVGSGNTNYAQKFQERVTITRDMSTSTAYMELSSLRSEDTAVYYCVADTVYWGQGTLVTVSS", "VL": "QSVLTQPPSVSEAPRQRVTISCSGSSSNIGNNAVNWYQQLPGEAPKLLIYYDDLLPSGVSDRFSGSKSGSSASLAISGLQAEDEADYYCATWDDSLNAWVFGGGTKVTVLQ"}, "B6": {"name": "N1wc570 (scFv, V domains shown)", "VH": "B5 VH with Q105R, L108M", "VL": "QSVLTQPPSASATPGQTVTISCSGSTSNIGNNNVNWYQQVPGTAPKLLMYSNNQRPSGVPDRFSGSRSGTSASLAITALQSEDEADYYCATWDDSLSAWVFGGGTKVTVL", "notes": "phage scFv"}, "B7": {"name": "HN1S3-147 (antibody, human IgG1, lambda, V domains shown)", "VH": "B5 VH with Q105K", "VL": "not shown"}, "B8": {"name": "WC-629 (antibody, human IgG1, lambda, V domains shown)", "VH": "EVQLVQSGAEVKKPGSSVKVSCKASGGTLSSYTVSWLRQAPGQGLEWMGRIIPILDRANYAQKFQGRVTITADKSTSTAYMELNSLRSDDTAVYYCARSIGAAGDGVWFDPWGQGTMVTVSS", "VL": "QAVLTQPSSVSGAPGQRVTISCTGSSSNIGAGYDVHWYQQLPGTAPKLLIFDNKNRPSGVPDRFSGSNSGTSASLAITGLQAEDEAEYYCQSYDNNLSGRVFGGGTKLTVLQ"}, "B9": {"name": "N1wc586 (scFv, V domains shown)", "VH": "QVQLVQSGPEVKKPGASVKVSCKAAGYTFPDFYMHWVRQAPGKGPEWVGWINSNSGSTRLAERLEGRVTLTRDTSISTAYMELTSLTSDDTAVYYCARGAYDYVWGTSRYVADAFDIWGQGTLVTVSP", "VL": "DIVMTQSPSTLSASVGDRVTITCRASQGISSWLAWYQQKPGRAPKVLIYKASTLESGVPSRFSGSGSGTDFTLTISSLQPEDFATYYCQQSYSTPWTFGQGTKLEIK", "notes": "phage scFv"}, "B10": {"name": "N1wc441 (scFv, V domains shown)", "VH": "QVQLVQSGAEVKKPGASVKVSCKAPGYSFTDYYLHWVRQAPGIGLEWVGWINPNNGGTNYAQKFRGRVTMTRDTAINTAYMDMRWLRSDDTAVYYCATDGPPGTGNAFDIWGRGTLVTVSS", "VL": "SYELTQPPSVSVSPGQTARITCSGDALPDKYVHWYQQKSGQAPVLVLFDDSKRPSGIPERFSGSSSGTVATLIISGAQVEDEGDFFCYSTDSSGNERVFGGGTKLTVL", "notes": "phage scFv"}, "B11": {"name": "hN1wc-179 (antibody, human IgG1, lambda, V domains shown)", "VH": "EVQLVQSGAEVKKPGASVKVSCKASGYNFTGYYMHWVRQAPGQGLEWMGWINPNSGGTNYAQKFQGRVTMTRDTSISTAYMELSRLRSDDTAVYYCATDSFDYWGQGTMVTVSS", "VL": "not shown"}, "B12": {"name": "N1wc319 (scFv, V domains shown)", "VH": "B11 VH with E1Q, K12E, Q106R, M109L", "VL": "QSVLTQPPSSSGTPGQRVTISCSGSSSNIGSNSVNWYQQLPGAAPKLLIYSDNQRPSGVPDRFSASKSYTSASLAISGLQSGDEADYFCATWDDSLTGLVFGGGTKLTVL", "notes": "phage scFv"}, "B13": {"name": "WC-75 (antibody, human IgG1, lambda, V domains shown)", "VH": "GVQLVQSGGGLVQPGGSLRLSCAASGFTFDDYAMHWVRQAPGKGLEWVSSISWHSRTIAYADSVKGRFSISRDNAKNSLYLQMNSLRPEDTAVYYCAKASYLSTSSSLDYWGRGTLVTVSS", "VL": "QSVLTQPGSVSGSPGQSITISCTGTSSDVGGYNYVSWYQQHPGKAPKLMIYEGSKRPSGVSNRFSGSKSGNTASLTISGLQAEDEADYYCSSYTTRSTRVFGGGTKLTVLQ"}, "B14": {"name": "N1wc301 (scFv, V domains shown)", "VH": "QVQLQQSGAEVKKPGASVKVSCKASGYIFGTYAIHWVRQAPGQSLEWMGWINAGTGNTKYSQKFQGRVTITMDTSATTAYMELSSLRSGDTAVYYCTRGDYYDSRGYYNRFDYWGRGTLVTVSS", "VL": "QSVVTQPPSASGTPGQRVTISCSGSSSNIGKNNVYWYQQLPGAAPKLLIYRNHERASGVPDRFSGSKSGTSASLAISGLQSEDEADYYCAARDDSLNGYVFGTGTKVTVL", "notes": "phage scFv"}, "B15": {"name": "A673-C2-110 (antibody, human IgG1, lambda, V domains shown)", "VH": "QVQLVQSGTEVKKPGASVRVSCKPSADTFTSYYVHWVRQAPGQGLEWMGTINPTGTYTRYAQQFQGRVTVTRDTSTSSVYMELSSLRSEDSAVYYCARDVRPYTAMYSFDNWGRGTTVTVSS", "VL": "SYVLTQPPSVSVSPGQTATITCSGDALPKQYANWYQQKPGQAPVLMIYKDSDRPSGIPERFSGSSSGTKATLTISGVQAEDEADYYCQSADNSGTNYVFGTGTKLTVLG"}, "B16": {"name": "N1wc535 (scFv, V domains shown)", "VH": "not shown", "VL": "QSVLTQPPSASGTPGQRVTLSCSGSSSNIGSNTVNWYQQLPGTAPKVLIYSDNQRPSGVPDRFSGSKSGTSASLAISGLQSDDEAVYYCAGWDDSLNAYLFGTGTKVTVL", "notes": "phage scFv"}},
  "key": {"[1]": {"target": "T1, human full-length Notch1 with C-terminal FLAG tag, stably expressed on 293 FlpIn (TREx) cells (human, UniProt P46531 19-2555)", "T1 construct": "tetracycline/doxycycline-induced expression from pcDNA5/FRT/TO-HN1+FLAG; also called hN1; 293_N1", "assay": "FACS, phage scFv"}, "[2]": {"target": "T2, human full-length Notch3 with C-terminal FLAG tag, stably expressed on 293 FlpIn (TREx) cells (human, UniProt Q9UM47 40-2321)", "T2 construct": "whole, on cells; made by the same strategy as the Notch1 line; also called 293-N3; hN3", "assay": "FACS, phage scFv"}, "[3]": {"target": "T3, human Notch3-Gal4 chimeric receptor on U2OS FlpIn TREx cells (human, UniProt Q9UM47 40-2321)", "assay": "cell-based or functional assay"}, "[4]": {"target": "T4, Notch1 extracellular fragment (amino acid 19-526) Fc fusion protein, R&D Systems 3647-TK (human, UniProt P46531 19-526)", "T4 construct": "bought protein; also called Notch1/Fc; Notch1-ECD Fc fusion protein; not shown: Fc of the bought fusion protein", "assay": "BIAcore SPR, Notch1/Fc on CM5, Mab analyte, 1:1 binding", "description": "All experiments were performed at 25° C. at a flow rate of 40 μl/min. […] FC1 was used as the reference cell. Specific signals were the results of differences of signals obtained on FC2 versus FC1. […] The dissociation phase of the analyte was monitored over a period of time ranging 10-30 minutes. Running buffer was also injected under the same conditions as a reference.\nEquilibrium dissociation constant (KD) was calculated by the ratio between dissociation (koff) and association (kon) rate constants."}, "[5]": {"target": "T3, human Notch3-Gal4 chimeric receptor on …", "assay": "cell-based or functional assay", "remark": "listed apart in the source"}},
  "note": "Where a chain is given by its changes, count along the chain named. Where two headings read alike, the source gives them in different places.",
  "data": [
    {"binder": "B1", "values": [
      {"measurement": "binding result", "setting": "[1]", "result": "binds"},
      {"measurement": "binding result", "setting": "[2]", "result": "binds"}
    ]},
    {"binder": "B2", "values": [
      {"measurement": "binding result", "setting": "[1]", "result": "binds"},
      {"measurement": "binding result", "setting": "[2]", "result": "binds"}
    ]},
    {"binder": "B3", "values": [
      {"measurement": "binding result", "setting": "[1]", "result": "binds"},
      {"measurement": "binding result", "setting": "[2]", "result": "binds"}
    ]},
    {"binder": "B4", "values": [
      {"measurement": "hN3, inhibition of Luc activity at [166 nM] Mab", "setting": "[3]", "result": "< 5", "unit": "%"}
    ]},
    {"binder": "B5", "values": [
      {"measurement": "Kd", "setting": "[4]", "result": 649, "unit": "pM"},
      {"measurement": "koff", "setting": "[4]", "result": 0.0004, "unit": "s⁻¹"},
      {"measurement": "kon", "setting": "[4]", "result": 616000, "unit": "M⁻¹ s⁻¹"}
    ]},
    {"binder": "B6", "values": [
      {"measurement": "binding result", "setting": "[1]", "result": "binds"},
      {"measurement": "binding result", "setting": "[2]", "result": "binds"}
    ]},
    {"binder": "B7", "values": [
      {"measurement": "Kd", "setting": "[4]", "result": 269, "unit": "pM"},
      {"measurement": "koff", "setting": "[4]", "result": 0.000285, "unit": "s⁻¹"},
      {"measurement": "kon", "setting": "[4]", "result": "1.06e+06", "unit": "M⁻¹ s⁻¹"}
    ]},
    {"binder": "B8", "values": [
      {"measurement": "hN3, inhibition of Luc activity at [166 nM] Mab", "setting": "[5]", "result": "< 10", "unit": "%"}
    ]},
    {"binder": "B9", "values": [
      {"measurement": "binding result", "setting": "[1]", "result": "binds"},
      {"measurement": "binding result", "setting": "[2]", "result": "binds"}
    ]},
    {"binder": "B10", "values": [
      {"measurement": "binding result", "setting": "[1]", "result": "binds"},
      {"measurement": "binding result", "setting": "[2]", "result": "binds"}
    ]},
    {"binder": "B11", "values": [
      {"measurement": "Kd", "setting": "[4]", "result": 7360, "unit": "pM"},
      {"measurement": "koff", "setting": "[4]", "result": 0.00363, "unit": "s⁻¹"},
      {"measurement": "kon", "setting": "[4]", "result": 493000, "unit": "M⁻¹ s⁻¹"}
    ]},
    {"binder": "B12", "values": [
      {"measurement": "binding result", "setting": "[1]", "result": "binds"},
      {"measurement": "binding result", "setting": "[2]", "result": "binds"}
    ]},
    {"binder": "B13", "values": [
      {"measurement": "hN3, inhibition of Luc activity at [166 nM] Mab", "setting": "[5]", "result": "< 10", "unit": "%"}
    ]},
    {"binder": "B14", "values": [
      {"measurement": "binding result", "setting": "[1]", "result": "binds"},
      {"measurement": "binding result", "setting": "[2]", "result": "binds"}
    ]},
    {"binder": "B15", "values": [
      {"measurement": "hN3, inhibition of Luc activity at [166 nM] Mab", "setting": "[3]", "result": "< 10", "unit": "%"}
    ]},
    {"binder": "B16", "values": [
      {"measurement": "binding result", "setting": "[1]", "result": "binds"},
      {"measurement": "binding result", "setting": "[2]", "result": "binds"}
    ]}
  ]
}
